Results as given in paper PMC6450514, “Pseudomonas aeruginosa esterase PA2949, a bacterial homolog of the human membrane esterase ABHD6: expression, purification and crystallization” (Acta Crystallographica. Section F, Structural Biology …, 2019).

Tested on: CCCC(=O)Oc1ccc([N+](=O)[O-])cc1
Experiment: purified protein
Conditions: 8 nM enzyme, 0.05-1 mM substrate, n-octyl beta-D-glucoside

For PA2949 (Pseudomonas aeruginosa PAO1), the Km was 0.17 ± 0.01 mM and the kcat was 520.4 ± 31.7 s⁻¹.
